# Measured values as given in the array DNA melting data of Ke et al..
# Experiment: melting temperature; melt of duplexes
# Settings: sodium 0.0675 M; strand 1 µM
row,Substance,Tm [°C]
1,CGACGTGCCTAATGTGCTG+CAGCACATGCTGCACGTCG ((((((((...((((((((+))))))))...)))))))),46.9
2,CGACGTGCCTAATGTGCTG+CAGCACATGGAGCACGTCG ((((((((...((((((((+))))))))...)))))))),51.9
3,CGACGTGCCTAATGTGCTG+CAGCACATGTAGCACGTCG ((((((((...((((((((+))))))))...)))))))),51.8
4,CGACGTGCCTAATGTGCTG+CAGCACATTAGGCACGTCG (((((((((((((((((((+))))))))))))))))))),63.6
5,CGACGTGCCTAATGTGCTG+CAGCACATTCCGCACGTCG ((((((((..(((((((((+)))))))))..)))))))),49.7
6,CGACGTGCCTAATGTGCTG+CAGCACATTCGGCACGTCG (((((((((.(((((((((+))))))))).))))))))),57
7,CGACGTGCCTAATGTGCTG+CAGCACATTGCGCACGTCG ((((((((..(((((((((+)))))))))..)))))))),51
8,CGACGTGCCTAATGTGCTG+CAGCACATTTAGCACGTCG ((((((((..(((((((((+)))))))))..)))))))),51.5
9,CGACGTGCCTAATGTGCTG+CAGCACATTTTGCACGTCG ((((((((..(((((((((+)))))))))..)))))))),51.1
10,CGACGTGCCTCATGTGCTG+CAGCACATACTGCACGTCG ((((((((...((((((((+))))))))...)))))))),47
11,CGACGTGCCTCATGTGCTG+CAGCACATAGAGCACGTCG ((((((((...((((((((+))))))))...)))))))),51.6
12,CGACGTGCCTCATGTGCTG+CAGCACATAGTGCACGTCG ((((((((...((((((((+))))))))...)))))))),45.9
13,CGACGTGCCTCATGTGCTG+CAGCACATATAGCACGTCG ((((((((...((((((((+))))))))...)))))))),48.8
14,CGACGTGCCTCATGTGCTG+CAGCACATATGGCACGTCG (((((((((..((((((((+))))))))..))))))))),54
15,CGACGTGCCTCATGTGCTG+CAGCACATCAAGCACGTCG ((((((((.(.((((((((+)))))))).).)))))))),47.9
16,CGACGTGCCTCATGTGCTG+CAGCACATCACGCACGTCG ((((((((.(.((((((((+)))))))).).)))))))),46.1
17,CGACGTGCCTCATGTGCTG+CAGCACATCAGGCACGTCG ((((((((((.((((((((+)))))))).)))))))))),55
18,CGACGTGCCTCATGTGCTG+CAGCACATCATGCACGTCG ((((((((.(.((((((((+)))))))).).)))))))),47.2
19,CGACGTGCCTCATGTGCTG+CAGCACATCCCGCACGTCG ((((((((...((((((((+))))))))...)))))))),46.5
20,CGACGTGCCTCATGTGCTG+CAGCACATCCGGCACGTCG (((((((((..((((((((+))))))))..))))))))),51.2
21,CGACGTGCCTCATGTGCTG+CAGCACATCGAGCACGTCG ((((((((...((((((((+))))))))...)))))))),50
22,CGACGTGCCTCATGTGCTG+CAGCACATCGCGCACGTCG ((((((((...((((((((+))))))))...)))))))),46.6
23,CGACGTGCCTCATGTGCTG+CAGCACATCGTGCACGTCG ((((((((...((((((((+))))))))...)))))))),43
24,CGACGTGCCTCATGTGCTG+CAGCACATCTGGCACGTCG (((((((((..((((((((+))))))))..))))))))),52.7
25,CGACGTGCCTCATGTGCTG+CAGCACATGAAGCACGTCG ((((((((.((((((((((+)))))))))).)))))))),56.3
26,CGACGTGCCTCATGTGCTG+CAGCACATGACGCACGTCG ((((((((.((((((((((+)))))))))).)))))))),52.7
27,CGACGTGCCTCATGTGCTG+CAGCACATGAGGCACGTCG (((((((((((((((((((+))))))))))))))))))),65.8
28,CGACGTGCCTCATGTGCTG+CAGCACATGATGCACGTCG ((((((((.((((((((((+)))))))))).)))))))),56.7
